From patent US20020002269A1, “ARTEMIN, A NEUROTROPHIC FACTOR” (priority 1998, published 2002)

B1: GDNF: recombinant human mature GDNF obtained from Genentech (protein, UniProt P39905 78-211, looked up)
Glial cell line-derived …: SPDKQMAVLPRRERNRQAAAANPENSRGKGRRGQRGKNRGCVLTAIHLNVTDLGLGYETKEELIFRYCSGSCDAAETTYDKILKNLSRNRRLVSDKVGQACCRPIAFDDDLSFLDDNLVYHILRKHSAKRCGCI

Experiments:
[1] = molecular target: T1, RET (Homo sapiens, UniProt P07949); assay: Western blot of RET phosphorylation and MAP kinase activation in NBL-S cells, with or without PI-PLC; assay type: cell-based; conditions: FIG. 9B
T1 construct: both the SH-SY5Y and NBL-S cell lines express GFRα1, GFRα2, and GFRα3, as well as RET; endogenous in cells; host or cells: NBL-S neuroblastoma cells
Method: (§1) In brief, SCG neurons were dissected from postnatal day 1 (P1) rats and maintained in NGF-containing medium for 5 days, after which they were deprived of NGF by switching to NGF-free medium in the presence of anti-NGF antibodies. After 2 hours without NGF, neurons were switched to medium containing NGF, GDNF or artemin at 50 ng/ml for 20 minutes. Cells were washed in cold PBS, and collected in immunoprecipitation buffer (1 mM EDTA/1 mM EGTA/0.2 mM NaVO3/1 mM Pefabloc/1 uM pepstatin A/10 ug/ml leupeptin/2 ug/ml aprotinin/1% Triton X-100/0.5% Nonidet P-40/150 mM NaCl in 10 mM Tris, pH 7.4). The lysates were incubated with 30 μl agarose-conjugated anti-phosphotyrosine antibodies (Calbiochem) at 4° C. for 1 hr. Beads were then washed three times with immunoprecipitation buffer, resuspended in SDS sample buffer, and boiled for 5 min. Samples were separated using SDS-PAGE, and transferred to nitrocellulose membranes. Membranes were blocked for 1 hr at 25° C. in TBS containing 5% dry milk, incubated overnight 4° C. with a 1:300 dilution of anti-Ret antibody (C-19; Santa Cruz), then washed (3× in TBS containing 0.1% Tween-20) and incubated in a 1:10,000 dilution of anti-rabbit antibodies conjugated to HRP (Jackson Immunoresearch). Membranes were washed 3×, incubated with SuperSignal ULTRA (Pierce) for 5 minutes, then exposed to film. For MAP kinase (MAPK) assays, a portion of the total lysate wars removed before immunoprecipitation, separated by SDS-PAGE, and immunoblotted using an anti-phospho-MAP-kinase antibody (New England Biolabs).
NBL-S cells were plated at 3×10^5 cells/well in 6-well plates, and after 46 hr switched to low-serum (0.5%) medium for 2 hr, and then stimulated with NGF, GDNF or artemin (50 ng/ml) for 20 min. Cells were then collected and analyzed as above. For PI-PLC treatment, a parallel set of NBL-S cells were plated as above but treated with 500 mU/ml of PI-PLC (Boehringer-Mannheim) for 1 hr, and washed with PBS and stimulated with factors as above.

[2] = system: trigeminal ganglion (TG) neurons; assay: Survival of cultured trigeminal ganglion neurons; assay type: cell-based, rat; conditions: 50 ng/ml, FIG. 7C; for survival of TG sensory neurons: 3 days in vitro
Method: Each GDNF ligand family member consisted of the human mature amino acid sequence and was produced by standard recombinant DNA methods. Recombinant GDNF, neurturin and persephin were obtained from Genentech while recombinant artemin was produced as described in Example 3.
The cultures were performed using standard methods described elsewhere (Kotzbauer et al., Neuron 12:763-773, 1994; Kotzbauer et al., Nature 384:467-470, 1996; Milbrandt et al., Neuron 20:245-253, 1998). In brief, for SCG neurons, after dissection and dissociation, neurons were plated on collagen-coated 24-well tissue culture plates and maintained in NGF-containing medium (AM50) for 5 days, after which they were either kept in AM50 or switched to medium containing neutralizing anti-NGF antibodies plus GDNF, neurturin, persephin, artemin, (50 ng/ml where not noted otherwise), or no growth factors. Cultures were maintained for 3 days, after which they were fixed in 4% paraformaldehyde and stained with toluidine blue, and surviving neurons were counted. For nodose ganglion and dorsal root ganglion neuron cultures, dissociated neurons were plated directly into NGF (for dorsal root ganglia), or BDNF (for nodose ganglia, 100 ng/ml) or one of the GDNF ligands in serum-containing medium (AM50 with anti-NGF antibodies), and cells surviving after 3 days in culture were counted as above. Trigeminal ganglia were dissected, dissociated, and plated directly into medium containing NGF or the indicated GDNF ligands, and the number of surviving cells was assessed after 3 days in vitro. For all culture systems, 2-3 independent experiments were performed.

[3] = molecular target: T2, RET (Rattus norvegicus, UniProt G3V9H8); assay: Western blot of RET phosphorylation and MAP kinase activation in SCG neurons; assay type: cell-based; conditions: 50 ng/ml for 20 minutes, FIG. 9A
T2 construct: endogenous in cells
Method: as §1

[4] = system: SAN neuroblastoma cell line; assay: Responsiveness of a neuroblastoma cell line that does not express RET (SAN); assay type: cell-based; conditions: data not shown

T2 sequence (G3V9H8 24-1115): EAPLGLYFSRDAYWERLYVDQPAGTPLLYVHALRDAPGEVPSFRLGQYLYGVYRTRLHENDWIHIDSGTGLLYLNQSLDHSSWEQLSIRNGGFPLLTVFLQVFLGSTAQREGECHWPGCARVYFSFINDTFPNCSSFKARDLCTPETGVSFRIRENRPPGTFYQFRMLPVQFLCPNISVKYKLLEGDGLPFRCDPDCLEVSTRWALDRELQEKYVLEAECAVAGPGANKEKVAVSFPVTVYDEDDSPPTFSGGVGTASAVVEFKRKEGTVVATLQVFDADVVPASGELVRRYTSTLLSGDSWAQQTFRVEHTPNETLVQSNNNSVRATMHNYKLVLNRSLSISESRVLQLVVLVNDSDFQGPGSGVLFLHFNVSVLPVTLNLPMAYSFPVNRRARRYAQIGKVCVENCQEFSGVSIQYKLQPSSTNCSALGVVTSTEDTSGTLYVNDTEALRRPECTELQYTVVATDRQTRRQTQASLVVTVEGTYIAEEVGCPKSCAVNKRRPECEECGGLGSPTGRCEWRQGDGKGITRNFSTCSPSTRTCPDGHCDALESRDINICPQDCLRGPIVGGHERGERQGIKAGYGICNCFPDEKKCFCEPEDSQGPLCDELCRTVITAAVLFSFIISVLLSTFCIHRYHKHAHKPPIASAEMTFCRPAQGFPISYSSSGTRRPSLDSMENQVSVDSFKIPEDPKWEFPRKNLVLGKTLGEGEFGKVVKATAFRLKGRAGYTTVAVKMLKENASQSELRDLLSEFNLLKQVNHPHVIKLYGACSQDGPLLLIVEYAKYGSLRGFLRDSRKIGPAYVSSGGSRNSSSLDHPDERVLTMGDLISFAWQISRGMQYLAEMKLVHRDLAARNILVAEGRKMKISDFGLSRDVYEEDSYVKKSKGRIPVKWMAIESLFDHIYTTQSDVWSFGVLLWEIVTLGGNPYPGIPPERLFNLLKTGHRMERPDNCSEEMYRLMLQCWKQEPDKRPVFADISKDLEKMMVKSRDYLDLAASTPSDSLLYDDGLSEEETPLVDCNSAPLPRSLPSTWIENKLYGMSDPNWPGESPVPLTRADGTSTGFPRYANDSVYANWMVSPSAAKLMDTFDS
T1 sequence (P07949 29-1114): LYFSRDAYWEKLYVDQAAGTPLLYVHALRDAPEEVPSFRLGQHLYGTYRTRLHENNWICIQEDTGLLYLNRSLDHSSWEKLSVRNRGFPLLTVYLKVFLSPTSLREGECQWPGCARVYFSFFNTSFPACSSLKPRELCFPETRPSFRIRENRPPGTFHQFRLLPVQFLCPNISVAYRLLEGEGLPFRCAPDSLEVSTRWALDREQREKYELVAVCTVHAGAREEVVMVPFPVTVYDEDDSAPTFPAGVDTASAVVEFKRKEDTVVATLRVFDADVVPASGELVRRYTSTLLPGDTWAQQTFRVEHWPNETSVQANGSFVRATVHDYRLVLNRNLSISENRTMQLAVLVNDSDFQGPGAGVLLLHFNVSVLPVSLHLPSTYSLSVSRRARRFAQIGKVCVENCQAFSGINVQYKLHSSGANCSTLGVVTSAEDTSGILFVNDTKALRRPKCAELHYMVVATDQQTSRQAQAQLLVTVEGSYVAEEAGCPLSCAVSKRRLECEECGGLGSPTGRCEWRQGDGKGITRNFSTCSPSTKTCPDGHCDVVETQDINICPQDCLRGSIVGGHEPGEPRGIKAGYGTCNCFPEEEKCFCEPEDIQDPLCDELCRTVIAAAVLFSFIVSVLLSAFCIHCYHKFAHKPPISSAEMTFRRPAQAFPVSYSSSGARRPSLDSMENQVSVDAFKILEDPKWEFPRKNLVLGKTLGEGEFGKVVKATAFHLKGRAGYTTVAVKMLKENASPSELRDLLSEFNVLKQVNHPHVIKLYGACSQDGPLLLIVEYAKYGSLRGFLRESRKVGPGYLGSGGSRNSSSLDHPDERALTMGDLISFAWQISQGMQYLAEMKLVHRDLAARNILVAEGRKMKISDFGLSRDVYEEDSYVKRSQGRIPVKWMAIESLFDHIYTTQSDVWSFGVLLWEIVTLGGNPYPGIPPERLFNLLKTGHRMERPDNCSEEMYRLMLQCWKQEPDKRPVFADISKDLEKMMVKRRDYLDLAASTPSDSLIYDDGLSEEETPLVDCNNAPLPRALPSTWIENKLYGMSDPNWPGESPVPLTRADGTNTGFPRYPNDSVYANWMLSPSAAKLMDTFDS

Molecule | downstream signaling (activation of the MAP kinase pathway) in NBL-S cells ([1]; 50 ng/ml for 20 min) | tyrosine-phosphorylation of RET in NBL-S cells ([1]; 50 ng/ml for 20 min) | effect of PI-PLC pretreatment on signaling in NBL-S cells ([1]; 500 mU/ml PI-PLC for 1 hr, then factor 50 ng/ml for 20 min) | survival of TG sensory neurons [2] | number of TG neurons supported compared with GDNF or neurturin [2] | number of TG neurons supported compared with NGF [2] | downstream signaling (activation of the MAP kinase pathway) in SCG neurons [3] | tyrosine-phosphorylation of RET in SCG neurons [3] | response of SAN cells [4]
artemin: recombinant mature human artemin (FIG. 3A, SEQ ID NO:3) with 8-histidine tag, produced in E. coli; GDNF family neurotrophic factor | effective in eliciting downstream signaling | induced tyrosine-phosphorylation of RET | abolished artemin's ability to activate RET and all downstream signaling | supported the survival of a subset of sensory neurons | supported a larger number of neurons than GDNF or neurturin | a greater number (TG) | effective in eliciting downstream signaling | induced tyrosine-phosphorylation of RET | did not respond
B1 | – | induced tyrosine-phosphorylation of RET | – | supported the survival of a subset of sensory neurons | – | – | – | induced tyrosine-phosphorylation of RET | did not respond
